Test results taken from article PMC5312596, “A novel Pfs38 protein complex on the surface of Plasmodium falciparum blood-stage merozoites” (Malaria Journal, 2017).

T1: recombinant PfMSP-1_(65) (aa 1052–1664) (Plasmodium falciparum 3D7, UniProt Q8I0U8 1052-1664)
T1 construct: Merozoite surface protein 1 (MSP-1), Plasmodium falciparum 3D7, aa 1052-1664, amplified from 3D7 cDNA and cloned in pET28b (NcoI/XhoI); Cloning in pET28b between NcoI and XhoI would give a C-terminal His6 (surmised); also called rPfMSP-1_(65); source: E. coli BL21, soluble, purified (Ni-NTA)
T1 sequence: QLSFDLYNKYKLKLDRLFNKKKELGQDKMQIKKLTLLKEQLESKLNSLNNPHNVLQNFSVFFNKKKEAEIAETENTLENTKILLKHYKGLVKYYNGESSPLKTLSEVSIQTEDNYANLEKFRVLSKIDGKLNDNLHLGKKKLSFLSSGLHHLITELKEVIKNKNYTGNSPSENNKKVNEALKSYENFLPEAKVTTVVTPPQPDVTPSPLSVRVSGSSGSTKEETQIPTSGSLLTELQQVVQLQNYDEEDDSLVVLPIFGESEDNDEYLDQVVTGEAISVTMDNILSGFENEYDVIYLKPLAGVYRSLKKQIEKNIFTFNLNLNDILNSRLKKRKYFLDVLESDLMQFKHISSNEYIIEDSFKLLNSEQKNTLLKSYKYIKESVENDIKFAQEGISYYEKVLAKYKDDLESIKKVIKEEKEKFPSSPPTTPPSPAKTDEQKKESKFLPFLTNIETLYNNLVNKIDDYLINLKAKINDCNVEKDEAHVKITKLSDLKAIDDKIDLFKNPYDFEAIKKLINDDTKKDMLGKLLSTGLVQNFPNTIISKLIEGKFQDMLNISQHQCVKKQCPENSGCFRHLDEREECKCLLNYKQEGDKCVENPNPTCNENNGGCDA

B1: recombinant Pfs38 (6-Cys domain, aa 153–328) (domain or fragment)
chain: KIPGCDFNADYKESTAITTFSNMSPRRVKVCDVYPKSGDFISLMCPSDYSIKPDGCFSNVYVKRYPNEEVKEEDRFNLNRKWDASKYNVVSIETVLKMNMITQGDKYSIFSKLPDVKDQVDFTCICQSNDEQDNLMMNVYINNTSYLTNNTRSIGVNKHSFSNSEIFERIEREEIS
notes: Pfs38, Plasmodium falciparum 6-Cys protein; 6-Cys domain aa 153-328, amplified from a codon-optimised synthetic gene (aa 22-328) and cloned in pET28b between NcoI and XhoI; Cloning in pET28b between NcoI and XhoI would give a C-terminal His6 (surmised); The forward primer adds a few residues (Met-Gly-Ser) before the insert (surmised from the primer); also called rPfs38
B2: recombinant GLURP R2 (domain or fragment)
chain: DGPVPSKPFEEIEKVDVQPKIVDLQIIEPNFVDSQPNPQEPVEPSFVKIEKVPSEENKHASVDPEVKEKENVSEVVEEKQNSQESVEEIPVNEDEFEDVHTEQLDLDHKTVDPEIVEVEEIPSELHENEVAHPEIVEIEEVFPEPNQNNEFQEINEDDKSAHIQHEIVEVEEILPEDDKNEKVEHEIVEVEEILPEDKNEKGQHEIVEVEEILPEDDKNEKVEHEIVEVEEILPEDKNEKGQHEIVEVEEILPEDKNEKVEHEIVEVEEILPEDKNEKGQHEIVEVEEILPEDKNEKVQHEIVEVEEILPEDKNEKGQHEIVEVEEILPEEDKNEKGQHEIVEVEEILPEDKNEKVQHEIVEVEEILPEDKNEKVQHEIVEVEEILPEIVEIEEVPSQTNNNENIETIKPEEKKNEFSVEEKAIPQEPVVPTLNENENVTPKPSEGESTKPDIVQIKIVQENKPNKKETPVVDG
modifications: Limits are not printed. The conventional GLURP R2 fragment (705-1178, F32 strain, 1271-aa GLURP) is assumed. The 3D7 orthologue is Q8IJ56.

Tests used:
[1] = target: T1, recombinant PfMSP-1_(65) (aa 1052–1664); assay: far-Western, overlay or dot blot; 1-5 µg recombinant protein separated by SDS-PAGE, blotted, denatured and renatured; membrane incubated with 2 µg/mL purified GLURP R2, Pfs38 or SERA-5 in 100 mM NaCl, 20 mM Tris pH 7.6, 0.5 mM EDTA, 10% glycerol, 1 mM DTT, 2 h at RT; detected with antisera to the soluble protein; settings: both partners purified
[2] = target: B1; assay: SPR; BIACORE 2000, 37 °C, HBS-EP buffer; GLURP R2 immobilised (up to 400 RU) on CM5 chip; Pfs38 injected at increasing concentrations, 20 µL/min; 1:1 Langmuir fit; settings: both partners purified

Binder	binding result [1]	Kd [2] [nM]
B1	binds	–
B2	–	26
